Target: fak1_chick PTK2 (UniProt Q00944)
Sequence (Q00944 whole entry): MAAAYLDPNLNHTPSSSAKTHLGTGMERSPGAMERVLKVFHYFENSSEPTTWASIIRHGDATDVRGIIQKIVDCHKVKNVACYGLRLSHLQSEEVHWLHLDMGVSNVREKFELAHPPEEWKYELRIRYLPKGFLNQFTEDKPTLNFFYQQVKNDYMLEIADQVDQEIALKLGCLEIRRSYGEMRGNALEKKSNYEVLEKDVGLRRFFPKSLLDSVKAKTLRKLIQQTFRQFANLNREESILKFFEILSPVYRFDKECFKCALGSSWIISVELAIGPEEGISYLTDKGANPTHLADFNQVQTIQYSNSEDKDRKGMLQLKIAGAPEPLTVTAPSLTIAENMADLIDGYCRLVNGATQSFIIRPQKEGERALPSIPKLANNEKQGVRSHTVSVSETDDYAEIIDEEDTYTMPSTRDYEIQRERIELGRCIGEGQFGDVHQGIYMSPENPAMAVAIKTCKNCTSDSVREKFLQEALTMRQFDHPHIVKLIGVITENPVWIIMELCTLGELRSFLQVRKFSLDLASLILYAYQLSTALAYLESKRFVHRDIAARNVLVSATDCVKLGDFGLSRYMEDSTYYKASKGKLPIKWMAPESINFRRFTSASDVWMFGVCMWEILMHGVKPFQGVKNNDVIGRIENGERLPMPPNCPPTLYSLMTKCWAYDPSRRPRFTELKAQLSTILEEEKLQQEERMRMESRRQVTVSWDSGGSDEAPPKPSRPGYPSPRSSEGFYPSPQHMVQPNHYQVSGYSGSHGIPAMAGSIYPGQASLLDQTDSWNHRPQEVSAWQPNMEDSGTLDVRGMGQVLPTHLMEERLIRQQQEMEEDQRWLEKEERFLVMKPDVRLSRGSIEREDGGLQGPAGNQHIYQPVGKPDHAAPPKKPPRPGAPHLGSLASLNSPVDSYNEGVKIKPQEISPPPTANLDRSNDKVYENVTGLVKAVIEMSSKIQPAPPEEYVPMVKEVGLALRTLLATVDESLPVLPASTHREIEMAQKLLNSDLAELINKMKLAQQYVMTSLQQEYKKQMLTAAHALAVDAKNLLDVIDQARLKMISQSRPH

Chain of Paxillin (Gallus gallus (Chicken)), P49024 D146A (P49024 whole entry D146A): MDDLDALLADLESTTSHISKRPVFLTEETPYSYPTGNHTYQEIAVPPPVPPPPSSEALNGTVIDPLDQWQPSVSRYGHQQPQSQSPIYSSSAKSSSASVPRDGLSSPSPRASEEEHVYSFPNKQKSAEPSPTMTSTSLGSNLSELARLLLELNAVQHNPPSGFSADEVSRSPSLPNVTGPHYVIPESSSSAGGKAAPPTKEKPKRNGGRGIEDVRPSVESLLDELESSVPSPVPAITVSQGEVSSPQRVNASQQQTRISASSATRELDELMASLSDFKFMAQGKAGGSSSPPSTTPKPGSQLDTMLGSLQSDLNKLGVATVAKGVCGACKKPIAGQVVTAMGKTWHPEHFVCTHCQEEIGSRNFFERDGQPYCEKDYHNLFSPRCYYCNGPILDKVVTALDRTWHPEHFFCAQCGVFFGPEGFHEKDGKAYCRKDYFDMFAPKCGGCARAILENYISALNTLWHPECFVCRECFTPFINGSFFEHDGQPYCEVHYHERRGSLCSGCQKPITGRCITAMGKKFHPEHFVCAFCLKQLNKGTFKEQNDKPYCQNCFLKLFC
Chain of Paxillin (Gallus gallus (Chicken)), P49024 D146A;D268A (P49024 whole entry D146A/D268A): as the sequence (P49024 whole entry D146A) above, with D268A counted along it

| Substance | effect of a mutation on the interaction |
| --- | --- |
| Paxillin (Gallus gallus (Chicken)), P49024 D146A | decreasing interaction |
| Paxillin (Gallus gallus (Chicken)), P49024 D146A;D268A | disrupting interaction |

Reference: IntAct's records for PubMed 18171471
